Measured values taken from patent US20060110800A1 (ZymoGenetics, published 2006).

Molecular target: T1, 125I-IL-13 (UniProt P35225 35-146, limits assumed, 125I label (site not stated))
T1 construct: also called labeled IL-13; interleukin 13
Test: saturation binding analysis of 125I-IL-13 on BHK cells expressing Zcytor2
Description: The binding of ¹²⁵I-IL-13 to wild-type and Zcytor2-transfected BHK, TF-1, and BaF3 cells was determined. BHK cells were assayed in 6-well culture plates. TF-1 and BaF3 cells were assayed in microcentrifuge tubes. Cells were combined with 500 μl of either solution A (15 ml of binding buffer [RPMI containing 20 mM Tris pH7.4, 0.05% NaN₃, and 3 mg/ml BSA] plus 263 μl of ¹²⁵I-IL-13 [5.7×10⁷ cpm/ml]) or solution B (solution A containing 15 μl of cold 25 μg/ml IL-13). After a 2-hour incubation, cells were washed three times with 500 μl binding buffer and lysed in 500 μl of 400 mM NaOH. Lysates were transferred to tubes for gamma counting.

T1 sequence (P35225 35-146 limits assumed): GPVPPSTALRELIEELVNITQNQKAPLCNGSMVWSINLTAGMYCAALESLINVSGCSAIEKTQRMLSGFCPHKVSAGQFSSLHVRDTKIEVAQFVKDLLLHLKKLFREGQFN

Kd: 0.59 nM
B1: human Zcytor2 receptor expressed on transfected BHK cells (receptor)
chain: SSDTEIKVNPPQDFEIVDPGYLGYLYLQWQPPLSLDHFKEYTVEYELKYRNIGSETWKTIITKNLHYKDGFDLNKGIEAKIHTLLPWQCTNGSEVQSSWAETTYWISPQGIPETKVQDMDCVYYNWQYLLCSWKPGIGVLLDTNYNLFYWYEGLDLALQCVDYIKADGQNIGCRFPYLEASDYKDFYICVNGSSENKPIRSSYFTFQLQNIVKPLPPVYLTFTRESSCEIKLKWGIPLGPIPARCFDYEIEIREDDTTLVTATVENETYTLKTTNETRQLCFVVRSKVNIYCSDDGIWSEWSDKQCWEGEDLSKKTLLRFWLPFGFILILVIFVTGLLLRKPNTYPKMIPEFFCDT
notes: also called BHK/Zcytor2 cells; Zcytor2-transfected BHK
